# Test results: publication PMC3159478 (Nucleic Acids Research, 2011)
# Changes are numbered by the printed parent chain. In names and notes the source's numbering stands. Read-outs that look alike come from different tables or passages of the source.
# T1: SsoMCM WT (Sulfolobus solfataricus, UniProt Q9UXG1 1-686)
# T1 sequence: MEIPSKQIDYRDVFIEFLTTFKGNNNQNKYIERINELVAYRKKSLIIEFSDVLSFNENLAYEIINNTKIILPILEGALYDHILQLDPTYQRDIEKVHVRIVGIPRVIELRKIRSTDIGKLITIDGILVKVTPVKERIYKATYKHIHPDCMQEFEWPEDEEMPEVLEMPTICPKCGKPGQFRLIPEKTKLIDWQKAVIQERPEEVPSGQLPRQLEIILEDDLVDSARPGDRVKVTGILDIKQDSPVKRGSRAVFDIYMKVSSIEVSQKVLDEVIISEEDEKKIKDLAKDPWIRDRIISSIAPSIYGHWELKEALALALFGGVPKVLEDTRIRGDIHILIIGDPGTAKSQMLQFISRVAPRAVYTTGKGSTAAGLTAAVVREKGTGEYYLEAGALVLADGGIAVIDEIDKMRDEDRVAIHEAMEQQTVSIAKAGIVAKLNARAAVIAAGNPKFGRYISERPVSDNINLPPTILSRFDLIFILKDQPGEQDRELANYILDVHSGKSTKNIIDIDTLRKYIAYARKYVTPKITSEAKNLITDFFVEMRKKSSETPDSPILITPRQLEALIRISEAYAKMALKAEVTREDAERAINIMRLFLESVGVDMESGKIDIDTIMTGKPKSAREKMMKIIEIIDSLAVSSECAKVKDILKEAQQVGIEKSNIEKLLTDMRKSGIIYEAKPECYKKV
# T2: SsoMCM K323A/R440A (Sulfolobus solfataricus, UniProt Q9UXG1 1-686, K323A;R440A)
# T2 sequence: T1 sequence with K323A, R440A
# B1: Wild-type SsoMCM fluorescently labelled at the N-terminus with Alexa 488 (donor) or Alexa 555 (acceptor) (protein)
# chain: T1 sequence
# B2: SsoMCM K323A/R440A (enzyme, Sulfolobus solfataricus, UniProt Q9UXG1 1-686, looked up)
# chain: T1 sequence with K323A, R440A
# B3: SsoMCM R440A (enzyme, Sulfolobus solfataricus, UniProt Q9UXG1 1-686, looked up)
# chain: T1 sequence with R440A
# B4: Full-length wild-type Sulfolobus solfataricus minichromosome maintenance (MCM) helicase (enzyme, UniProt Q9UXG1 1-686, looked up)
# chain: T1 sequence
# B5: SsoMCM K323A (enzyme, Sulfolobus solfataricus, UniProt Q9UXG1 1-686, looked up)
# chain: T1 sequence with K323A
# B6: spFRET fork 5'-tail 50 (51 nt) (mixed)
# DNA 1: TGGCGACGGCAGCGAGGCTTTTTTTTTTTTTTTTTTTTTTTTTTTTTTT
# DNA 2: TTTTTTTTTTTTTTTTTTTTTTTTTTTTTTTTTTTTTTTTTTTTTTTTTTTGCCTCGCTGCCGTCGCCA
# B7: spFRET fork 5'-tail 70 (71 nt) (mixed)
# DNA 1: B6 DNA 1
# DNA 2: TTTTTTTTTTTTTTTTTTTTTTTTTTTTTTTTTTTTTTTTTTTTTTTTTTTTTTTTTTTTTTTTTTTTTTTGCCTCGCTGCCGTCGCCA
# B8: ssDNA (66 nt) (ssDNA)
# DNA: CACCTCTCCCTACGCTTCCCACCCACCCCGACCGGCATCTGCTATGGTACGCTGAGCGAGAGTAGC
# Columns and labels:
# Q9UXG1 [1] = test: FRET or BRET
# Q9UXG1 [2] = test: FRET or BRET; remark: listed apart in the source
# Q9UXG1 [3] = test: FRET or BRET; remark: listed apart in the source
# Q9UXG1 [4] = test: FRET or BRET; remark: listed apart in the source
# Q9UXG1 [5] = test: FRET or BRET; remark: listed apart in the source
# SEC = biological target: the molecule itself; test: SEC
# SsoMCM WT [6] = biological target: T1, SsoMCM WT; test: single-pair FRET
# SsoMCM K323A/R440A = biological target: T2, SsoMCM K323A/R440A; test: single-pair FRET
# SsoMCM WT [7] = biological target: T1, SsoMCM WT; test: fluorescence anisotropy
binder,measurement,setting,value
B1,"kobs1 of MCM subunit exchange (first exponential, direct exchange of subunits)",Q9UXG1 [1],0.192 s⁻¹
same,"kobs1 of MCM subunit exchange (first exponential, direct exchange of subunits)",Q9UXG1 [2],0.0474 s⁻¹
same,"kobs1 of MCM subunit exchange (first exponential, direct exchange of subunits)",Q9UXG1 [3],0.196 s⁻¹
same,"kobs1 of MCM subunit exchange (first exponential, direct exchange of subunits)",Q9UXG1 [4],0.125 ± 0.005 min⁻¹
same,"kobs1 of MCM subunit exchange (first exponential, direct exchange of subunits)",Q9UXG1 [5],0.0556 s⁻¹
B2,stoichiometry N,SEC,6
B3,stoichiometry N,SEC,6
B4,stoichiometry N,SEC,6
B5,stoichiometry N,SEC,6
B6,binding result,SsoMCM WT [6],binds
same,binding result,SsoMCM K323A/R440A,binds
B7,binding result,SsoMCM WT [6],binds
same,binding result,SsoMCM K323A/R440A,binds
B8,Kd,SsoMCM WT [7],26 ± 5 nM
